Test results taken from patent US20160090427A1 (SAMSUNG ELECTRONICS, published 2016).

How the values were obtained:
[1] = target: T1, human c-Met/Fc fusion protein (R&D Systems) (human, UniProt P08581 25-932); assay: SPR (Biacore T100), bispecific captured by human Fab binder on CM5 chip, c-Met-Fc injected
T1 construct: Bought reagent; also called c-Met-Fc (#358-MT/CF, R&D Systems); human c-Met/Fc protein; not shown: Fc part of the bought fusion protein
Description: An examination on whether the anti-c-Met/anti-VEGF bispecific antibody maintains binding affinity to c-Met was conducted using Biacore T100(GE). A human Fab binding agent (GE Healthcare) was immobilized onto a CM5 chip (#BR-1005-30, GE) according to the manufacturer's instructions. About 90˜120 RU of the anti-c-Met/anti-VEGF bispecific antibody was captured, and c-Met-Fc (#358-MT/CF, R&D Systems) was injected thereto at various concentrations. Then, 10 mM Glycine-HCl (pH 2.1) solution was injected thereto to regenerate the surface. The obtained data were fitted using BlAevaluation software (GE Healthcare, Biacore T100 evaluation software), to measure the binding affinity to c-Met.

[2] = target: VEGF (R&D systems) (UniProt P15692-4 27-191, limits assumed); assay: SPR (Biacore T100), CM5 chip, VEGF; format unclear in the text
Chain of VEGF (R&D systems) (P15692 other isoform, or with tags, fused parts or gaps limits assumed): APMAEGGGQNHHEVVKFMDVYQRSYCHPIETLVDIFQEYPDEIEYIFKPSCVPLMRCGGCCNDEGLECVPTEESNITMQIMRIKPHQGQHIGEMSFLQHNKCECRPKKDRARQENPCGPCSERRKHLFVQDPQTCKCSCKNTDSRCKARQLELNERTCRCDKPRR
Description: An examination on whether the 8 anti-c-Met/anti-VEGF bispecific antibodies prepared in Example 2 maintains binding affinity to VEGF was conducted using Biacore T100(GE). VEGF (R&D systems) immobilized on the surface of CM5 chip (#BR-1005-30, GE) by amino coupling according to the manufacturer's instructions. About 90˜120 RU of the anti-c-Met/anti-VEGF bispecific antibody was captured, and […] was injected thereto at various concentrations. Then, a solution containing 1M NaCl and 5 mM NaOH was injected thereto to regenerate the surface. The obtained data were fitted using BlAevaluation software (GE Healthcare, Biacore T100 evaluation software), to measure the binding affinity to VEGF.

T1 sequence (P08581 25-932 limits assumed): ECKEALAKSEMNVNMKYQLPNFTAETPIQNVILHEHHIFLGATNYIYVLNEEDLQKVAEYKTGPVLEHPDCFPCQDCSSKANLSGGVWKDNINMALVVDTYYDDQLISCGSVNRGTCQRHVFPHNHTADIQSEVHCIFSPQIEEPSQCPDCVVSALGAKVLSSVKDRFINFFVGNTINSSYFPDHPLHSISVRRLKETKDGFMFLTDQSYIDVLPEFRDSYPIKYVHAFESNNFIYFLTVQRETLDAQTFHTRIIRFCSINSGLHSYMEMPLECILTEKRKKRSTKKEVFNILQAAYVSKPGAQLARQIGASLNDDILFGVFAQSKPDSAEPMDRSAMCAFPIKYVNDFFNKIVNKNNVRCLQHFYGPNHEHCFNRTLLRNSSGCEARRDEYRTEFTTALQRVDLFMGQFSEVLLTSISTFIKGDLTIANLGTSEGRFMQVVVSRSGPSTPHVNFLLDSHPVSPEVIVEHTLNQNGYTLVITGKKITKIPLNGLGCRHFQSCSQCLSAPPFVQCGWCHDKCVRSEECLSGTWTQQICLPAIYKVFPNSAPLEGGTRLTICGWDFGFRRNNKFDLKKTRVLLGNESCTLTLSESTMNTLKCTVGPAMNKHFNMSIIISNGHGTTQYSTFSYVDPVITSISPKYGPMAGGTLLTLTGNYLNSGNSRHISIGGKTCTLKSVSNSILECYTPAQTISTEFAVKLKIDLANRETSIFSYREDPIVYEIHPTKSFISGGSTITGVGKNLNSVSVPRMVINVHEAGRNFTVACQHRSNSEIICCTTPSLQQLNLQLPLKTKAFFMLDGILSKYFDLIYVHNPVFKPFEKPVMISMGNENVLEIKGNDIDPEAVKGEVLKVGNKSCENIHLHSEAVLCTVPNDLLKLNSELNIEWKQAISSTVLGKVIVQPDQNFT

| Kd [1] [nM] | Kd [2] [nM] | Binder |
| --- | --- | --- |
| 0.1 | 6.83 | MV-15 anti-c-Met/anti-VEGF bispecific antibody (bispecific antibody, human IgG2, kappa, This is an inference) heavy: EVQLVESGGGLVQPGGSLRLSCAASGFTFTDYYMSWVRQAPGKGLEWLGFIRNKANGYTTEYSASVKGRFTISRDNSKNTLYLQMNSLRAEDTAVYYCARDNWFAYWGQGTLVTVSSASTKGPSVFPLAPCSRSTSESTAALGCLVKDYFPEPVTVSWNSGALTSGVHTFPAVLQSSGLYSLSSVVTVPSSNFGTQTYTCNVDHKPSNTKVDKTVERKCCVECPPCPAPPVAGPSVFLFPPKPKDTLMISRTPEVTCVVVDVSHEDPEVQFNWYVDGVEVHNAKTKPREEQFNSTFRVVSVLTVVHQDWLNGKEYKCKVSNKGLPAPIEKTISKTKGQPREPQVYTLPPSREEMTKNQVSLTCLVKGFYPSDIAVEWESNGQPENNYKTTPPMLDSDGSFFLYSKLTVDKSRWQQGNVFSCSVMHEALHNHYTQKSLSLSPGKGGGGSGGGGSEVQLLESGGGLVQPGGSLRLSCAASGFTFSGYAMSWVRQAPGKGLEWVSSIYSSSGSKYYADSVKGRFTISRDNSKNTLYLQMNSLRAEDTAVYYCARASSTCTRTWCSYDDAMDVWGQGTLVTVSSGGGGSGGGGSGGGGSQSVLTQPPSASGTPGQRVTISCTGSSSNIGNNAVTWYQQLPGTAPKLLIYDDSHRPSGVPDRFSGSKSGTSASLAISGLRSEDEADYYCGTWDYSLSGYVFGGGTKLTVLG light: DIQMTQSPSSLSASVGDRVTITCKSSQSLLASGNQNNYLAWYQQKPGKAPKMLIIWASTRVSGVPSRFSGSGSGTDFTLTISSLQPEDFATYYCQQSYSRPYTFGQGTKVEIKRTVAAPSVFIFPPSDEQLKSGTASVVCLLNNFYPREAKVQWKVDNALQSGNSQESVTEQDSKDSTYSLSSTLTLSKADYEKHKVYACEVTHQGLSSPVTKSFNRGEC |
| 0.21 | 14.8 | MV-16 anti-c-Met/anti-VEGF bispecific antibody (bispecific antibody, human IgG2, kappa) heavy: EVQLVESGGGLVQPGGSLRLSCAASGFTFTDYYMSWVRQAPGKGLEWLGFIRNKANGYTTEYSASVKGRFTISRDNSKNTLYLQMNSLRAEDTAVYYCARDNWFAYWGQGTLVTVSSASTKGPSVFPLAPCSRSTSESTAALGCLVKDYFPEPVTVSWNSGALTSGVHTFPAVLQSSGLYSLSSVVTVPSSNFGTQTYTCNVDHKPSNTKVDKTVERKCCVECPPCPAPPVAGPSVFLFPPKPKDTLMISRTPEVTCVVVDVSHEDPEVQFNWYVDGVEVHNAKTKPREEQFNSTFRVVSVLTVVHQDWLNGKEYKCKVSNKGLPAPIEKTISKTKGQPREPQVYTLPPSREEMTKNQVSLTCLVKGFYPSDIAVEWESNGQPENNYKTTPPMLDSDGSFFLYSKLTVDKSRWQQGNVFSCSVMHEALHNHYTQKSLSLSPGKGGGGSGGGGSEVQLLESGGGLVQTGGSLRLSCAASGFTFSDYAMSWVRQAPGKGLEWVSSIYPGSGSKYYADSVKGRFAISRDNSKNTLYLQMNSLRAEDTAVYYCARDAWFRGHNVFDYWGQGTLVTVSSGGGGSGGGGSGGGGSQSVLTQPPSASGTPGQRVTISCTGSSSNIGSNNVTWYQQLPGTAPKLLIYSDSHRPSGVPDRFSGSKSGTSASLAISGLQSEDEADYYCGSWDYSLSAYVFGGGTKLTVLG light: DIQMTQSPSSLSASVGDRVTITCKSSQSLLASGNQNNYLAWYQQKPGKAPKMLIIWASTRVSGVPSRFSGSGSGTDFTLTISSLQPEDFATYYCQQSYSRPYTFGQGTKVEIKRTVAAPSVFIFPPSDEQLKSGTASVVCLLNNFYPREAKVQWKVDNALQSGNSQESVTEQDSKDSTYSLSSTLTLSKADYEKHKVYACEVTHQGLSSPVTKSFNRGEC |
| 0.09 | 5.76 | MV-17 anti-c-Met/anti-VEGF bispecific antibody (bispecific antibody, human IgG2, kappa) heavy: EVQLVESGGGLVQPGGSLRLSCAASGFTFTDYYMSWVRQAPGKGLEWLGFIRNKANGYTTEYSASVKGRFTISRDNSKNTLYLQMNSLRAEDTAVYYCARDNWFAYWGQGTLVTVSSASTKGPSVFPLAPCSRSTSESTAALGCLVKDYFPEPVTVSWNSGALTSGVHTFPAVLQSSGLYSLSSVVTVPSSNFGTQTYTCNVDHKPSNTKVDKTVERKCCVECPPCPAPPVAGPSVFLFPPKPKDTLMISRTPEVTCVVVDVSHEDPEVQFNWYVDGVEVHNAKTKPREEQFNSTFRVVSVLTVVHQDWLNGKEYKCKVSNKGLPAPIEKTISKTKGQPREPQVYTLPPSREEMTKNQVSLTCLVKGFYPSDIAVEWESNGQPENNYKTTPPMLDSDGSFFLYSKLTVDKSRWQQGNVFSCSVMHEALHNHYTQKSLSLSPGKGGGGSGGGGSEVQLLESGGGLVQPGGSLRLSCAASGFTFSNYDMSWVRQAPGKGLEWVSGIYPNGGSKYYADSVKGRFTISRDNSKNTLYLQMNSLRAEDTAVYYCARALRQCQRYWCSYADGMDVWGQGTLVTVSSGGGGSGGGGSGGGGSQSVLTQPPSASGTPGQRVTISCTGSSSNIGSNYVSWYQQLPGTAPKLLIYADSQRPSGVPDRFSGSKSGTSASLAISGLRSEDEADYYCGTWDYSLSGYVLGGGTKLTVLG light: DIQMTQSPSSLSASVGDRVTITCKSSQSLLASGNQNNYLAWYQQKPGKAPKMLIIWASTRVSGVPSRFSGSGSGTDFTLTISSLQPEDFATYYCQQSYSRPYTFGQGTKVEIKRTVAAPSVFIFPPSDEQLKSGTASVVCLLNNFYPREAKVQWKVDNALQSGNSQESVTEQDSKDSTYSLSSTLTLSKADYEKHKVYACEVTHQGLSSPVTKSFNRGEC |
| 0.05 | 4.23 | MV-18 anti-c-Met/anti-VEGF bispecific antibody (bispecific antibody, human IgG2, kappa) heavy: EVQLVESGGGLVQPGGSLRLSCAASGFTFTDYYMSWVRQAPGKGLEWLGFIRNKANGYTTEYSASVKGRFTISRDNSKNTLYLQMNSLRAEDTAVYYCARDNWFAYWGQGTLVTVSSASTKGPSVFPLAPCSRSTSESTAALGCLVKDYFPEPVTVSWNSGALTSGVHTFPAVLQSSGLYSLSSVVTVPSSNFGTQTYTCNVDHKPSNTKVDKTVERKCCVECPPCPAPPVAGPSVFLFPPKPKDTLMISRTPEVTCVVVDVSHEDPEVQFNWYVDGVEVHNAKTKPREEQFNSTFRVVSVLTVVHQDWLNGKEYKCKVSNKGLPAPIEKTISKTKGQPREPQVYTLPPSREEMTKNQVSLTCLVKGFYPSDIAVEWESNGQPENNYKTTPPMLDSDGSFFLYSKLTVDKSRWQQGNVFSCSVMHEALHNHYTQKSLSLSPGKGGGGSGGGGSEVQLLESGGGLVQPGGSLRLSCAASGFTFSDYYMSWVRQAPGKGLEWVSAIYSGGGSIYYADSVKGRFTISRDNSKNTLYLQMNSLRAEDTAVYYCARDVQWNKAPRFDYWGQGTLVTVSSGGGGSGGGGSGGGGSQSVLTQPPSASGAPGQRVTISCSGSSSNIGSNDVSWYQQLPGTAPKLLIYADSNRPSGVPDRFSGSKSGTSASLAISGLRSEDEADYYCGSWDYSLSGYVFGGGTKLTVLG light: DIQMTQSPSSLSASVGDRVTITCKSSQSLLASGNQNNYLAWYQQKPGKAPKMLIIWASTRVSGVPSRFSGSGSGTDFTLTISSLQPEDFATYYCQQSYSRPYTFGQGTKVEIKRTVAAPSVFIFPPSDEQLKSGTASVVCLLNNFYPREAKVQWKVDNALQSGNSQESVTEQDSKDSTYSLSSTLTLSKADYEKHKVYACEVTHQGLSSPVTKSFNRGEC |
